From the DeepSol protein solubility set

Assay: soluble on expression in E. coli; label from the status in PepcDB or PDB records

Sequence | soluble on expression in E. coli
MSLKVAVVGLGDISHVHIHAIQNSTKAQLVAVCDENEKLSQQVPHVNYYNDLQTMIDSETLDCVHICLPHYLHVSATTTCVENGINVLQEKPLAVNAKEGLELVKLQRKYPNIKIGICFQNRYNATFQALQEIVESKTYGEVIGVKGLVTWFRPESYYTDKPWRGQMATAGGGVLINQSIHTLDLIQLLCGKIASIKGTVSQLLDYDIEVEDTASAHIKFENKANGMFFATNANFGNSNVELQIIFENEKFTIKDNILTRFNEAGEKIKIAEDEKMTGNKTYYGPSHGKLINAFYDCINNDSNNYVHPKDALTSIAMIDAIQKSSESLKTVQFDSEGHHHHHH | soluble
MALSKLNHLYMAVVADHSKRPHHHGQLDGVEAVQLNNPTCGDVISLTVKFDEDKIEDIAFAGNGCTISTASSSMMTDAVIGKSKEEALALADIFSEMVQGQENPAQKELGEAELLAGVAKFPQRIKCSTLAWNALKEAIKRSANAQHLTDQNVKEGKNV | soluble
MSLKICNFRAHYSPTMLSYVIIFMVEKMNYIKINLKLNNPLAFWANFSESERFFWFDPQKETFVIGCERLKAIDLEHDKFSDYTYLFHSQTFFDDIKGELWENFGGETIAFKHYFVVNKENSYTLTCDSPREIPEITIPKFKHQLTEKASDFSAWQELFYAIQKNFADGKSRKIVASRELEFTSQTSFELESIIQNLLDNNPNAFIFAYQKGKRIFLGASPEILVQKENDQLLSYALAGTFPKTMENAGQKLLTDPKNLLEHDIVVQKIKRNLLEKAETVTVGTTELMELKNVYHLRTILSAKNSELSLIDWTKQLHPTPALGGEPRHEALEFLRKHENHERGLYAAPLGLIDSKGNGTMIVGIRSALIVDKKLYAYAGCGIIPSSDALEEFRETKVKLKTILEALEGHHHHHH | not soluble
MGSDKIHHHHHHMASPINESRIGYLYEAVRSGTVRAAADYLDVAPSAVSRQIALLEEELAIALVERNKRGVRPTEAGALLIEYFRQQRSHQGDLVAKLQEIRGLRRGTIVVVMGEGFASTMVGGPIKQFCEAYPEISITMDLCSTNEVMRRVSEDEADIGLVFNPSSDSKIVSRAGSRQPMHAIVSPAFPLVGKVKSVTLQDLMPYPMALTHPEHGTRRLVDAAMLLDKVRLTPAITTNSVNVLKLFAKSNLGFTLLAPIAIAPELAAGELVALPVDNRLLESSEAHLVTRAGRQLSPAANRLLNRLKAQIHKYDEYGAESGGQASLATQ | not soluble
MLYASYMSYVSIKMHASSNGAHISGAETLVDESRAYEFLSSFYQRANTHSKGKPEITTLTIRRIKDADIITIPALEVKCLPALHPSEAHRQVIEQLSNVVSPTIAQMALHTVLNARNMRGAILLCAHTGQRLDPYDPQRGVRASTFGVTPQESAGPTLNKSHFNEALVLASKVMSAPGIVAEICISDDPAYTTGYVTTENTYIRIPHMKDPYSPIGGRVFLLDTRVSTPEDTISYLEQKPVLITGVN | not soluble
MNAVAPLIPCIVSGGSGTRLWPVSRESMPKPFMRLADDQSLLQKTFLRIAGLPDVARLLTVTNRDLLFRTLDDYRAVNRSGLAQDLLLEPVGRNTAPAIAAAALHVQEHFGDQAQLLILPADHLIRDEQAFAAAVAEARGLAAQGYLVTFGITPERAETGFGYIEQGAPLGNGFRVARFVEKPDQATAQSYLDSGKYLWNAGMFCFQAATVLQELERHAPEVLIAARAALADGSSLENGQCRQRELAAGAFAEAPDISVDYALMERSDKVAVVPCSIGWSDIGSWQALRELSAADENGNQVRGESVLHDVSNCYIDSPKRLVGAVGVHDLIIVDTPDALLVADAARSQDVKFVAQELKRRGHDAFRLHRTVSRPWGTYTVLEEGRRFKIKRIVVRPKASLSLQMHHHRSEHWIVVSGMALVENGEREFLLNTNESTFIPAGHSHRLSNPGIIDLVMIEVQSGEYLGEDDIVRFNDIYGRAPASDEKK | not soluble
MTRIIASLSEVSAGYSALFCDLWGCLHDGKRPFAEAVEALRAFRARGGTVLLMTNAPRPKPSVVRQLESIGVPPDCYDEVTSSGDAAQYALVTGAVGRRVYHLGPQKDETFFTELSPDLQKVAATEAPIVRVPLEEAEGIVCTGLFDDLTETPEDYRATLLYAKTQGLKLLCANPDIVVDFGDKRIYCAGAIAEAYDAMGGQSLYFGKPHPPIYDLARRRLEALRPGVPADEILCVGDGIATDIRGAVAEGLDSLFITGGLAASVFGENGE | not soluble
MSNIIVLSGSPRKGGNTDLLVDAFVKGAEKSNNVEVVSVAYYKVNPCIGCNSCFDRAGHECFQQDDMQIVYDKLKCADVIVVASPVYFYGVSAQLKAIIDRLHTPMRNDFKVKKLALILVGAAVLPELFDSIKIQYQLVLNFFKLEDAGMVLVRGAKDKGDVRNTDGLDEAYRLGLAME | not soluble
MAEIFRIPEEKFRDKVHKSLEENVTWVERETGRLPSYEEVEEFLVEEFSKVIPFEGEEPVPEEAIELADKLKEEFTSEEVLLEDTGRKHRAIKLREGVYLRTAVHKAQGGLIRTEVYTDGEVIERVKIYGDFTLYPKESLKELEEKLKGIKFEPEEIKKVAHEFLQKVDMPGVSAEDLVIAIYG | soluble
MFEKVKVSTCFHVTLLKDYIVFYVSNNLNFASRWPRRRRGQRLLPTALRAMMLNPTEALLAEVSKARTSGARITVEEFIPIYKKVEAACGRSTTLKEFQTLLSHFDREGNGQIMLMELKSMLQNGGEKMTNQEARALKPATGLDTIYRNLNFNHKFTLDHSAIGFLRTNQFFDVQMIPVSRFFTVQDPSNALLSYTQKGIDFFEKLGQFSKEKAAIEEEYSTKLRSLAKKYAKKSEEDDEILKSVSYTSSFNSFLQQLDQIATRHQTSAEHIRGGVVSYVASKTCQMRSSRKNAINDLKTINDKLEDQINEMCKSGKCYLKSFKDAENSYQKFYKADKNLEISRLELEKARALANARNEACELAKQDYSALVRKTNAEQKRYHVELLPVIFARLKAVDKECIADMRQVLQKIVSFDDSLADSTEECRKIMQREVGKIDAEGDAQLVLKSVEATIEQPAPFEIEDLGDPKNCDSRTNDSADGSGGKLLKSSPSKNRIIRNFLGILKEKEADEKPEASNNDQLMYTDKSKPAHVRLSCLRSKIRDMEKQLEQAIQGREGITRLQQAYYTNPQHGNPSACTEPLISYAKKIEKLKMDIHNLKEFYAMLEMSVEEGQERSFGGRDTPDTTRSMSGSSTNQSSSKTIEDVLSGEAGNSSSADDSSKNILRQLFTTPKRLISSPKTSKSSTPTPLRRRAEISSPKILRSSFSGAIRKSLSTPDSVKVETAVTVTALFEFAKSSAETMSIEQGEILLVLEHDHGDGWTRTKKKHNEESGFVPTSYLQFPQ | not soluble
MRKIILASGSPRRKELLELAGVPFEIIVSEVEETIGAYSSPSDIVMSLALQKASAVAENNSDHIVLGADTIVTYESRILGKPSNKAEAKEMLQLLSGKTHEVYTGVAIIAKDKTVTFYERTEVTFWELTEEEIDAYVASKEPLDKAGSYGIQGKGSIFVQHIQGDYYSVVGLPISRLVRELKQFNIDVTHA | not soluble
MKLINTTWTHQELVNNQLDNTDAFLVETYSAGNTDVVFTQAPKHYELLISNKHRAVKDNELEVIREFFLKRKIDKDIVLMDKLRTVHTDKLIEISFPTTV | soluble
DVIELTDDSFDKNVLDSEDVWMVEFYAPWCGHCKNLEPEWAAAASEVKEQTKGKVKLAAVDATVNQVLASRYGIRGFPTIKIFQKGESPVDYDGGRTRSDIVSRALDLFSDNAPPPELLE | soluble
MQITTTFRHMEQSEALKSYAAEKLERVKKYIDEPITAQVFLTVEKIRHIAEVTLTAKGITIKAAEETNDMYAALDAVIDKIERQLRRYKERLKEHKPSADDRALEIQKSVVTAESIEQRTEPVVIRSKTISIKPMSVEEAVMQMDLLHKDFLVFTDASTEAINVVYRRKDGNYGLIEPQRKLEHHHHHH | soluble
MDKMVSYLFKGEVKNPYVFLVLGKDKEIEHTVRTDVIVVGVLDWKKGNLSFVSIPRDLMIEGKKINAIYNTYGMEKLFQIIESLLGQKPDSYVIFNYEAFKILVDELGPIEVIPNEVMFYEDLSQNLVIDFKPGVPYKLNGEQLLAYIRYRKDSMGDLARIERQKDVLKKLLSKALSRNPLEISVLYKKISPYIETDIGLPEILTLFSKLKNSVRVSFSTLPYNVDSDGSIFVDEKRLVSFKENLIGSSVQEKYRVNFLVVNTSSLVSRVFEANLRGVWKDRVGFEPDRVVWEDVGISQKFEGDHVFIGEPEKEDYILEILRKAHPSRHFTVHRFDRPEDYTMYYTILESLAKNRIYPDFPVSALILIDDFRELEHHHHHH | soluble
AHHHHHHGSVKVTFLGHAAFYIEGSKKILIDPFLSGNPVASAKPDDFKSVDLILVTHAHGDHLGDVGTIAKRTGAKVVAMYDLANYIAEKYKGVETIGMNYGPTKVDEVEIVQVPAWHSSSDGKYSIGNACGYIVKLDGVTIYHAGDTYVFKDMELFAELYGPIDVALLPIGGHFTMGVREAAKAVELLKPRHVIPMHYNTWPPIAADPEEFKKLVGEKAKVVILKPGESLEL | not soluble
EMEEREIINNVFEFGDMQAKNAMVQRIDMVAIDMEDSYDEIIQVFKTEKLSRMPVYEETIDDIVGILNIKDIIFLSDEEIESFDIKNYMREPFFTYEFKKITQLLEEMKLEKSQMAIVVDEYGGTSGLLTIEDLVEVIVGDIE | soluble
MSVELWQQCVDLLRDELPSQQFNTWIRPLQVEAEGDELRVYAPNRFVLDWVNEKYLGRLLELLGERGEGQLPALSLLIGSKRSRTPRAAIVPSQTHVAPPPPVAPPPAPVQPVSAAPVVVPREELPPVTTAPSVSSDPYEPEEPSIDPLAAAMPAGAAPAVRTERNVQVEGALKHTSYLNRTFTFENFVEGKSNQLARAAAWQVADNLKHGYNPLFLYGGVGLGKTHLMHAVGNHLLKKNPNAKVVYLHSERFVADMVKALQLNAINEFKRFYRSVDALLIDDIQFFARKERSQEEFFHTFNALLEGGQQVILTSDRYPKEIEGLEERLKSRFGWGLTVAVEPPELETRVAILMKKAEQAKIELPHDAAFFIAQRIRSNVRELEGALKRVIAHSHFMGRPITIELIRESLKDLLALQDKLVSIDNIQRTVAEYYKIKISDLLSKRRSRSVARPRQVAMALSKELTNHSLPEIGVAFGGRDHTTVLHACRKIAQLRESDADIREDYKNLLRTLTT | not soluble
MSLGFASQQEAVNDFWGWPSDESDKEAVEASIRKYANAIADTINKYGYDGFDIDYEPNYGNKGNIVDDDDRMFIFVDELGKHFGPKSGTGKLLIIDGEPQSIKNRPDVGPYFDYFIIQAYKPGNDNNLDKRLIDGGVAGPGLVQTYGSVMSEEQITKMTIMTENFEAVDAAMDGGYPYTDRYGNSMKSLEGMARWQPKNGFRKGGVGSYHMEAEYPTNPEYKNLRKAIQIMNPSTKPLIKYEGHHHHHH | soluble
